Here are results for five molecules from US20250250357A1 (NANJING ZAIMING PHARMACEUTICAL, published 2025).

In assay [1] the target is T1, human MSLN protein endogenously expressed on OVCAR3 tumor cells (human, UniProt Q13421 296-598).
T1 construct: whole, on cells; Endogenous target on OVCAR3 cells; kept apart from the recombinant full-length construct; also called mesothelin
The assay can be described thus: FACS on OVCAR3 cells.

For assay [2], the target named is T2, human MSLN full-length protein (NCBI: AAH09272.1) expressed on HEK293T-hMSLN-B8 cells (human, UniProt Q13421 296-598).
T2 construct: Whole encoded precursor
Briefly: FACS on HEK293T-hMSLN-B8 cells.

Assay [3] deals with T3, human MSLN-R3 protein (Met487-Ser606 of NCBI AAH09272.1) expressed on HEK293T-hMSLN-R3 cells (human, UniProt Q13421 487-606).
T3 construct: also called Region3
The assay can be described thus: FACS on HEK293T-hMSLN-R3 cells.

In assay [4] the target is T4, monkey MSLN full-length protein (NCBI: XP_028696439.1) expressed on HEK293T-monkey MSLN cells (monkey).
T4 construct: Whole encoded precursor
T4 chain: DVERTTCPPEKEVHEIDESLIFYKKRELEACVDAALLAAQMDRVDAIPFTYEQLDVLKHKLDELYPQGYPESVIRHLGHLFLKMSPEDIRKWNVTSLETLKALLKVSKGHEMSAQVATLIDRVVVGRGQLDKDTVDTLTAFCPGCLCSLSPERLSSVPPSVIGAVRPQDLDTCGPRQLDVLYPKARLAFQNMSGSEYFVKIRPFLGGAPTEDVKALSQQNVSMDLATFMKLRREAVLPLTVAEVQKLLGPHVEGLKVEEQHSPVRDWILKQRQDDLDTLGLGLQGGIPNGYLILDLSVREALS
The assay can be described thus: FACS on HEK293T-monkey MSLN cells.

Assay [5] addresses T5, human MSLN-FL-his protein (human, UniProt Q13421 296-580).
T5 construct: Self-made in HEK293E cells; also called human MSLN full-length protein; hMSLN-FL-his; not shown: His tag
The assay can be described thus: ELISA on coated antigen, antibody 1 nM. A general note: An ELISA detects its analyte on a solid surface through an enzyme-linked reagent.

For assay [6], the target named is T6, human MSLN-R1-his protein (human, UniProt Q13421 296-390).
T6 construct: Self-made in HEK293E cells; also called human MSLN-R1 protein; hMSLN-R1-his; not shown: His tag
T6 chain: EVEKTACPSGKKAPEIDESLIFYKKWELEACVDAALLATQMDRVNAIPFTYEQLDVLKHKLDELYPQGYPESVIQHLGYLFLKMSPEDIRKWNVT
The assay can be described thus: ELISA on coated antigen, antibody 1 nM.

Assay [7] concerns the target T5, human MSLN-FL-his protein. The assay can be described thus: ELISA on coated antigen, antibody 10 nM.
In assay [8] the target is T6, human MSLN-R1-his protein. The assay can be described thus: ELISA on coated antigen, antibody 10 nM.
The target in assay [9] is T5, human MSLN-FL-his protein. Briefly: ELISA on coated antigen, antibody 0.1 nM.
Assay [10] concerns the target T5, human MSLN-FL-his protein. The assay can be described thus: ELISA on coated antigen, antibody 100 nM.
Assay [11] concerns the target T6, human MSLN-R1-his protein. The assay can be described thus: ELISA on coated antigen, antibody 0.1 nM.
Assay [12] has as its target T6, human MSLN-R1-his protein. Briefly: ELISA on coated antigen, antibody 100 nM.
The target of assay [13] is T5, human MSLN-FL-his protein. The assay can be described thus: ELISA on coated antigen, antibody 0.01 nM.
Assay [14] addresses T6, human MSLN-R1-his protein. Briefly: ELISA on coated antigen, antibody 0.01 nM.
The target of assay [15] is T5, human MSLN-FL-his protein. Briefly: ELISA on coated antigen, antibody 0.001 nM.
Assay [16] addresses T6, human MSLN-R1-his protein. The assay can be described thus: ELISA on coated antigen, antibody 0.001 nM.
The target in assay [17] is T5, human MSLN-FL-his protein. The assay can be described thus: ELISA on coated antigen, antibody 0.0001 nM.
Assay [18] addresses T6, human MSLN-R1-his protein. The assay can be described thus: ELISA on coated antigen, antibody 0.0001 nM.
Assay [19] addresses T5, human MSLN-FL-his protein. Briefly: ELISA on coated antigen, no antibody (column none).
In assay [20] the target is T6, human MSLN-R1-his protein. The assay can be described thus: ELISA on coated antigen, no antibody (column none).
The target in assay [21] is T7, human MSLN-R3-his protein (human, UniProt Q13421 487-598).
T7 construct: also called human MSLN-R3 protein; hMSLN-R3-his; not shown: His tag
The assay can be described thus: ELISA, coated antigen; antibody 1 nM.

Assay [22] addresses T8, human MSLN-R3-3 polypeptide (human).
T8 construct: also called human MSLN-R3-3 protein; hMSLN-R3-3
Briefly: ELISA, coated antigen; antibody 1 nM.

Assay [23] addresses T7, human MSLN-R3-his protein. Briefly: ELISA, coated antigen; antibody 10 nM.
For assay [24], the target named is T8, human MSLN-R3-3 polypeptide. Briefly: ELISA, coated antigen; antibody 10 nM.
Assay [25] concerns the target T7, human MSLN-R3-his protein. Briefly: ELISA, coated antigen; antibody 0.1 nM.
For assay [26], the target named is T7, human MSLN-R3-his protein. Briefly: ELISA, coated antigen; antibody 100 nM.
For assay [27], the target named is T8, human MSLN-R3-3 polypeptide. Briefly: ELISA, coated antigen; antibody 0.1 nM.
For assay [28] the target is unchanged. The assay can be described thus: ELISA, coated antigen; antibody 100 nM.
The target of assay [29] is T7, human MSLN-R3-his protein. The assay can be described thus: ELISA, coated antigen; antibody 0.01 nM.
For assay [30], the target named is T8, human MSLN-R3-3 polypeptide. Briefly: ELISA, coated antigen; antibody 0.01 nM.
The target in assay [31] is T7, human MSLN-R3-his protein. The assay can be described thus: ELISA, coated antigen; antibody 0.001 nM.
Assay [32] concerns the target T8, human MSLN-R3-3 polypeptide. Briefly: ELISA, coated antigen; antibody 0.001 nM.
Assay [33] deals with T7, human MSLN-R3-his protein. The assay can be described thus: ELISA, coated antigen; antibody 0.0001 nM.
Assay [34] has as its target T8, human MSLN-R3-3 polypeptide. Briefly: ELISA, coated antigen; antibody 0.0001 nM.
Assay [35] addresses T7, human MSLN-R3-his protein. Briefly: ELISA, coated antigen; no antibody (blank, column 'none').
Assay [36] concerns the target T8, human MSLN-R3-3 polypeptide. The description is as above.

T7 sequence (Q13421 495-606): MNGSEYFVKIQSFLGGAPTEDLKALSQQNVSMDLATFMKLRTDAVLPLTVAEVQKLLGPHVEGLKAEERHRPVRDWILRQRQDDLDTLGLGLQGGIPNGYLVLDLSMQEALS
T5 sequence (Q13421 other isoform, or with tags, fused parts or gaps): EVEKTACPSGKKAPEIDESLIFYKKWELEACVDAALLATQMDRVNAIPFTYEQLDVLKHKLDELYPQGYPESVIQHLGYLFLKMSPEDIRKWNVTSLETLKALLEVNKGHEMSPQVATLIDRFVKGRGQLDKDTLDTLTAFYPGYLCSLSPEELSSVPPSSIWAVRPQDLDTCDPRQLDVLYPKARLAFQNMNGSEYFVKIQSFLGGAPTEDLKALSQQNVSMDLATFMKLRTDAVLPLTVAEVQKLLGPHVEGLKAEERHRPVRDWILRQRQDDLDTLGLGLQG
T3 sequence (Q13421 495-614): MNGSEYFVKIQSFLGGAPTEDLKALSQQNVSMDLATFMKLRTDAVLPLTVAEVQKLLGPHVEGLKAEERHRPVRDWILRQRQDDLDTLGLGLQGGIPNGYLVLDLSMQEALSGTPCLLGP
T2 sequence (Q13421 other isoform, or with tags, fused parts or gaps limits assumed): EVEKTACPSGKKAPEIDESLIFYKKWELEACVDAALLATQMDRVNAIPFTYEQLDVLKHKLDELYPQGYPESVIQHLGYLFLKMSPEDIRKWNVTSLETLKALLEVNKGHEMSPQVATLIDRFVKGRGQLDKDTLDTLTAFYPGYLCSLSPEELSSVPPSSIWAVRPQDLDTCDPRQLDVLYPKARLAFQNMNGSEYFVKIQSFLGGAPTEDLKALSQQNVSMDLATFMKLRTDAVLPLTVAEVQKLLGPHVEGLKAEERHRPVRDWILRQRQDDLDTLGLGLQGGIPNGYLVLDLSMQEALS
T1 sequence (Q13421 other isoform, or with tags, fused parts or gaps): as the sequence (Q13421 other isoform, or with tags, fused parts or gaps limits assumed) above, with P14R counted along it

B1: S009-F4-94.15 (antibody, human IgG1, kappa, V domains shown)
VH: QVQLHQPGAELVRPGSSVKLSCKASGYTFTSYWVHWVQQRPRQGLEWIGNIDPSDSEIHYNQKFKDKATLTVDKSSSTAYIHLSRLTSEDSAIYYCVRGGVPWFAYWGQGTLVTVSA
VL: QIVLTQSPAIMSASPGEKVTLTCSASSSVSSTYLYWFQQKPGSSPKVWIYSTSNLASGVPARFSGSGSGTSYSLTISSMEAEDAASYFCHQWISYPYTFGGGTKLEIKR
notes: human-murine chimeric antibody, human IgG1/kappa constant regions
Turning to B1, the half-maximal effective concentration (EC50) was 0.65 nM in assay [1], 3.06 nM in assay [2] and 0.37 nM in [4]. The “Maximum mean fluorescence intensity” value in [1] stood at 7060; in assay [2], 113000; in [3], 84; in [4] it was 29900. Further, the binding result in assay [3] is “no binding”.

B2: S009-F3.80.22 (antibody, human IgG1, kappa, V domains shown)
VH: QVQLQQSGAELVRPGASVTLSCKASGYTFTDYEIHWVKQTPVHGLEWIGAFDPEIGGSAYNQKFKDRATLTADKSSSTAYMELHSLTAEDSAVYYCTDYYGSSSGYFDVWGTGTTVTVSS
VL: DVVMTQTPLSLPVSLGDQASISCRSSQSLEHNNGNTYLHWFLHKPGQSPKLLIYKVSNRFSGVPDRFSGSGSGTDFTLKISRVEAEDLGVYFCSQSTHVPFTFGSGTKLEIKR
notes: Human-murine chimeric antibody: murine VH/VL on human IgG1 heavy and kappa light constant regions
For the molecule B2, the OD450 in assay [5] came to 1.97 OD450; in assay [6] it was 0.05 OD450; in assay [7] it was 1.99 OD450; in assay [8], 0.06 OD450; in [9] it was 1.71 OD450; in [10], 2.31 OD450. Besides, the OD450 was 0.06 OD450 in [11]; 0.07 OD450 in assay [12]; 0.69 OD450 in assay [13]; 0.06 OD450 in [14]; 0.14 OD450 in assay [15]; 0.06 OD450 in assay [16]. Also, the OD450 in assay [17] came to 0.07 OD450; in assay [18] it was 0.06 OD450; in assay [19] it was 0.07 OD450; in assay [20] it was 0.06 OD450.

B3: S009-F3.23.1 (antibody, human IgG1, kappa, V domains shown)
VH: QVQLQQSGADLVRPGASVTLSCKASGYTFTDYEMHWVKQTPVHGLEWIGAIDPETGDTVYNQNFKGKAILTADKSSSTAYMELRSLTSEDSAVYYCTRYGYDWGWGQGTTLTVSS
VL: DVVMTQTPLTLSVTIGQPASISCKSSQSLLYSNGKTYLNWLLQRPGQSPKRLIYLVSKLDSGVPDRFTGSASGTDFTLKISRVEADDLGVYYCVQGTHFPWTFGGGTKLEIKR
notes: Human-murine chimeric antibody, human IgG1/kappa constant regions
Regarding B3, the OD450 came to 1.77 OD450 in assay [21]; 1.87 OD450 in assay [22]; 1.95 OD450 in assay [23]; 2.01 OD450 in [24]; 1.51 OD450 in assay [25]; 2.31 OD450 in assay [26]. The OD450 in [27] is 1.54 OD450; in [28] it was 2.33 OD450; in [29] it was 0.48 OD450; in assay [30] it was 0.57 OD450; in [31], 0.12 OD450; in assay [32], 0.18 OD450. In addition, the OD450 came to 0.08 OD450 in assay [33], 0.09 OD450 in assay [34], 0.1 OD450 in assay [35] and 0.09 OD450 in assay [36].

B4: S009-F3.45.21 (antibody, human IgG1, kappa, V domains shown)
VH: DVQLQESGPGLVKPSQSLSLTCSVTGDSITSGYYWNWIRQFPGNKLEWMGFIRFDGTNNYNPSLKNRISITRDTSKNQFFLKLNSVTTEDTATYYCAREGSYAPAWFAYWGQGTLVTVSA
VL: QIVLTQSPAIMSASPGEKVTMTCSASSSLSYMYWYQQKPGSSPRLLIYDTSNLASGVPVRFSGSGSGTSYSLTISRMEAEDAATYYCQQWSSYPPTFGGGTKLEIKR
notes: as for B3
As for B4, the OD450 in assay [21] was determined as 0.05 OD450; in [22], 0.07 OD450; in assay [23] it was 0.07 OD450; in assay [24], 0.08 OD450; in assay [25], 0.06 OD450; in assay [26], 0.09 OD450. Also, the OD450 in assay [27] turned out to be 0.08 OD450; in assay [28], 0.11 OD450; in assay [29] it was 0.07 OD450; in assay [30], 0.07 OD450; in [31] it was 0.24 OD450; in [32], 0.25 OD450. The OD450 in assay [33] was 0.09 OD450; in [34], 0.1 OD450; in assay [35], 0.09 OD450; in assay [36], 0.07 OD450.

B5: S009-F3.51.8 (antibody, human IgG1, kappa, V domains shown)
VH: QVQLQQSGAELVRPGASVTLSCKASGYTFTDYEMHWVKQTPVHGLEWIGGFDPETGGTAHNQKFKGKAILTADKSSSTAYMELRSLTSEDSAVYYCSNYGSIWGDCWGQGTSVTVSS
VL: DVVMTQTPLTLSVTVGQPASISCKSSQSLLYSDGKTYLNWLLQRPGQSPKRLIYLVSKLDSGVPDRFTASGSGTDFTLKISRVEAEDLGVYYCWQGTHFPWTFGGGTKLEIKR
notes: as for B3
In the case of B5, the OD450 in [21] came to 1.83 OD450; in [22] it was 1.8 OD450; in assay [23], 1.91 OD450; in [24], 1.92 OD450; in [25] it was 1.55 OD450; in assay [26], 2.18 OD450. The OD450 in assay [27] turned out to be 1.42 OD450; in [28], 2.04 OD450; in assay [29], 0.41 OD450; in assay [30], 0.51 OD450; in assay [31], 0.12 OD450; in assay [32] it was 0.13 OD450. Also, the OD450 came to 0.09 OD450 in assay [33], 0.09 OD450 in assay [34], 0.09 OD450 in assay [35] and 0.07 OD450 in [36].

In general, EC50 refers to the concentration that produces a half-maximal response.
